{"source": "patent US20090074766A1", "about": "“Methods of inhibiting HIV-2 infection” (priority 2007, published 2009)", "molecules": {"B1": {"name": "PRO 140: humanized IgG4,κ anti-CCR5 monoclonal antibody, humanized version of murine mAb PA14 (antibody, chains of the INN, looked up, V domains shown)", "VH": "EVQLVESGGGLVKPGGSLRLSCAASGYTFSNYWIGWVRQAPGKGLEWIGDIYPGGNYIRNNEKFKDKTTLSADTSKNTAYLQMNSLKTEDTAVYYCGSSFGSNYVFAWFTYWGQGTLVTVSS", "VL": "DIVMTQSPLSLPVTPGEPASISCRSSQRLLSSYGHTYLHWYLQKPGQSPQLLIYEVSNRFSGVPDRFSGSGSGTDFTLKISRVEAEDVGVYYCSQSTHVPLTFGQGTKVEIK"}}, "key": {"[1]": {"system": "primary R5 HIV-1 isolates", "assay": "Whole virus replication (neutralization) assay in PBMC, p24 ELISA", "format": "cell-based", "details": "variety of primary R5 strains (FIG. 1)", "method": "The data reflect the median values from 8 or more independent assays. The genetic subtypes of the viruses are indicated in parentheses.\nReplication of authentic HIV-1 is measured in activated peripheral blood mononuclear cells (PBMCs) using the monocyte/macrophage-tropic HIV-1 clone, JRFL (HIV-1JRFL), for these studies.\nPBMCs are isolated from 4 separate donors (Leukopacks) by centrifugation on a Ficoll gradient. CD8 cells are depleted using RosetteSep CD8 Depletion Cocktail (#15663, StemCell Research, Vancouver, BC). […]\nSerial dilutions of virus are tested in quadruplicate on activated PBMCs (1.4×10^5 PBMC/well). […] Virus titer is determined by the method of Reed and Muench (Table 11, see below). […]\nThe percent inhibition is derived as follows [1−(p24 levels in the presence of drug/p24 levels in the absence of drug)]×100. IC50 values are determined by fitting the inhibition data with a non-linear, four-parameter, variable slope equation (GraphPad Prism, ver. 4.02; GraphPad Software, San Diego, Calif.). […]\nSerial dilutions of virus are tested in quadruplicate on activated PBMCs (1.4×10^5 PBMC/well). […] Virus titer is determined by the method of Reed and Muench (Table 11)."}, "[2]": {"system": "R5 HIV-2 SLRHC", "assay": "Inhibition of replication in PBMC cultures, RT activity readout: HIV-2 SLRHC", "format": "cell-based", "method": "(§1) Viruses: All virus isolates were grown and titered exclusively in stimulated PBMC as described previously. […] The HIV-2 isolates used in this study have been previously described (Owen, S. M., Ellenberger, D., Rayfield, M., Wiktor, S., Michel, P., Grieco, M. H., Gao, F., Hahn, B. H., and Lai, R. B. 1998. Genetically Divergent Strains of Human Immunodeficiency Virus Type 2 Use Multiple Coreceptors for Entry. J Virol 72:5425-5432) and were obtained from the NIH AIDS Research and Reference Reagent Program.\nPA14 (Lot # DF-021204) was produced for reagent use in the Research & Development laboratories of Progenics Pharmaceuticals Inc.\nInhibition of HIV-1 and HIV-2 replication in PBMC cultures: PBMC were isolated from 34 healthy blood donors with Ficoll-Hypaque (all media from Cellgro, Herndon, Va.) and depleted of CD8+ cells using RosetteSep CD8 depletion cocktail (StemCell Technologies) according to the manufacturer's instructions. Equal numbers of cells from each donor were then separately stimulated with 5 ug phytohemagglutinin/ml (Sigma, St. Louis, Mo.) or with surface-immobilized anti-CD3 antibody OKT3 in RPMI 1640 medium containing 10% fetal calf serum, 100 Units of interleukin-2/ml (NIH AIDS Research and Reference Reagent Program), glutamine, and antibiotics (PBMC culture medium) as previously described. After 72 hours, equal numbers of PBMC stimulated by one of these two methods from each donor were combined for use in infection assays as follows. […] The virus inoculum was adjusted to 400 to 2,000 times the TCID50 per ml in PBMC culture medium, and a 50-ul aliquot was added to each culture. The inhibitory doses refer to the concentrations of the agents present at this point in the culture, when virus, cells, and inhibitors were all present at their final concentrations. Reverse Transcriptase (RT) activity was measured on Day 7 post infection (pi) for HIV-1 and Day 10 pi for HIV-2 by the Reverse Transcriptase Assay, Colorimetric kit, #11 468 120 910, Roche (Switzerland) according to the manufacturer's instructions with the following exception: neither ultracentrifugation nor PEG precipitation of the culture supernatants was performed before viral lysis.\nThe inhibition data were analyzed using GraphPad Prism software (GraphPad Software, San Diego, Calif.). A 4-parameter logistic fit was used calculate the concentration of inhibitor that afforded a 50% and a 90% reduction in RT activity. […] The % inhibitions where best-fit curve reached a top plateau, also as calculated by GraphPad Prism software, are reported as well as maximum percent inhibition (MPI). […] Inhibition curves with a poor sigmoid fit (R^2<0.7) were excluded from data analysis."}, "[3]": {"system": "R5X4 HIV-2 isolates", "assay": "Inhibition of replication in PBMC cultures, RT activity readout: two R5X4 HIV-2 isolates", "format": "cell-based", "details": "result in words", "method": "Two well-characterized R5 HIV-1 isolates were included for comparative purposes.\nas §1\nInhibition of HIV-1 and HIV-2 replication in PBMC cultures: PBMC were isolated from 34 healthy blood donors with Ficoll-Hypaque (all media from Cellgro, Herndon, Va.) and depleted of CD8+ cells using RosetteSep CD8 depletion cocktail (StemCell Technologies) according to the manufacturer's instructions. […] Reverse Transcriptase (RT) activity was measured on Day 7 post infection (pi) for HIV-1 and Day 10 pi for HIV-2 by the Reverse Transcriptase Assay, Colorimetric kit, #11 468 120 910, Roche (Switzerland) according to the manufacturer's instructions with the following exception: neither ultracentrifugation nor PEG precipitation of the culture supernatants was performed before viral lysis.\nThe inhibition data were analyzed using GraphPad Prism software (GraphPad Software, San Diego, Calif.). […]"}, "[4]": {"system": "HIV-1", "details": "Table 2 comparison; cited from earlier work"}}, "note": "Where “and” joins values, the source holds several entries; their conditions need not be identical. Equal values may be shown once. Entries after “also recorded” stand apart in the source; their conditions may differ."}
{"molecule": "B1", "values": [{"measurement": "IC90", "setting": "[1]", "result": "3 to 4", "unit": "µg/mL"}, {"measurement": "EC50 (median)", "setting": "[2]; HIV-2 SLRHC, R5", "result": 0.57, "unit": "µg/mL"}, {"measurement": "EC90 (median)", "setting": "[2]; HIV-2 SLRHC, R5", "result": 21, "unit": "µg/mL"}, {"measurement": "MPI (maximum percent inhibition)", "setting": "[2]; R5 HIV-2 SLRHC, individual assays (Source)", "result": "104% and 135% and 127% and 150%"}, {"measurement": "MPI, Median", "setting": "[2]; R5 HIV-2 SLRHC, median of assays", "result": 135, "unit": "%"}, {"measurement": "effect on replication of R5X4 HIV-2 isolates", "setting": "[3]", "result": "did not measurably inhibit replication; also recorded: Neither PRO 140 nor PA14 had any measurable effect on replication"}, {"measurement": "Development of Resistance In Vitro", "setting": "[4]", "result": "None at 40 weeks"}]}
